Data as given in article PMC11665552, “Talin1 dysfunction is genetically linked to systemic capillary leak syndrome” (JCI Insight, 2024).

Molecular target: T1, WT talin1 R12-R13-DD (murine, UniProt P26039 2138-2541)
T1 construct: talin1, murine, rod domains R12 and R13 and the dimerization domain (DD), residues 2138-2541; also called WT-R12-R13-DD; R12-R13-DD WT
Test: SEC; 100 uM talin and 100 uM Vd1 (1:1 ratio), Superdex 200 Increase 10/300 GL, room temperature (25°C)
Conditions: both partners purified

T1 sequence (P26039 2138-2541): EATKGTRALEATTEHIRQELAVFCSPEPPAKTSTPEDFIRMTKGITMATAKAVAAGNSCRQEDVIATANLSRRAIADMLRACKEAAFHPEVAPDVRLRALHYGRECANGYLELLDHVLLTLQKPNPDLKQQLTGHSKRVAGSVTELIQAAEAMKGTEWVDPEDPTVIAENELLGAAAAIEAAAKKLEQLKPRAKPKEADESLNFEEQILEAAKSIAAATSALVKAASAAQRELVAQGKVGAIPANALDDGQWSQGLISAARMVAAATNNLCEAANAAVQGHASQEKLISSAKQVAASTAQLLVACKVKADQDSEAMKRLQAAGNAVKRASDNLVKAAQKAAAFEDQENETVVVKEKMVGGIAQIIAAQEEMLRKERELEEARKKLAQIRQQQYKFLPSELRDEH

B1: talin-binding domain 1 of vinculin (Vd1) (domain or fragment, chicken, UniProt P12003 1-258, looked up)
chain: MPVFHTRTIESILEPVAQQISHLVIMHEEGEVDGKAIPDLTAPVSAVQAAVSNLVRVGKETVQTTEDQILKRDMPPAFIKVENACTKLVRAAQMLQADPYSVPARDYLIDGSRGILSGTSDLLLTFDEAEVRKIIRVCKGILEYLTVAEVVETMEDLVTYTKNLGPGMTKMAKMIDERQQELTHQEHRVMLVNSMNTVKELLPVLISAMKIFVTTKNTKSQGIEEALKNRNFTVEKMSAEINEIIRVLQLTSWDEDAW
notes: vinculin, chicken, domain 1 (Vd1), residues 1-258; expressed from a pET-15b plasmid; also called vinculin Vd1 domain
  binding result: binds
